Experimental findings from patent US20260167734A1 are described below.

This assay addresses human FasL, cell surface (membrane-bound) (human) (UniProt P48023). Put plainly: cell-based or functional assay.

human FasL, cell surface (membrane-bound) (human), sequence (P48023 whole entry): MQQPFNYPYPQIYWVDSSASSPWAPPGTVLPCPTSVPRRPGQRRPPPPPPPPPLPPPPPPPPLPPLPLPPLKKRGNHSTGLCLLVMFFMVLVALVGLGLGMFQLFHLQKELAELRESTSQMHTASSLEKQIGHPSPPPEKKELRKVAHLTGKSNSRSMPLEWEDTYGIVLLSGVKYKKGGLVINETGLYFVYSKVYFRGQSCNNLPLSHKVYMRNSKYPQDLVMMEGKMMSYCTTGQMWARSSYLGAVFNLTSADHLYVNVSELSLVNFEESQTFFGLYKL

“soluble CD95-Fc (sCD95-Fc) fusion protein (from UniProt P25445 26-172) (Fc fusion)” yielded an inhibition of FasL-mediated apoptosis of Jurkat cells (annexin-V externalization, flow cytometry), IC50 of 0.102 µM.
